Sequences and labels used below:
B1: TopB (Gal4 fusion for yeast two-hybrid) (natural protein, E. coli, UniProt P14294 1-653, looked up)
chain: MRLFIAEKPSLARAIADVLPKPHRKGDGFIECGNGQVVTWCIGHLLEQAQPDAYDSRYARWNLADLPIVPEKWQLQPRPSVTKQLNVIKRFLHEASEIVHAGDPDREGQLLVDEVLDYLQLAPEKRQQVQRCLINDLNPQAVERAIDRLRSNSEFVPLCVSALARARADWLYGINMTRAYTILGRNAGYQGVLSVGRVQTPVLGLVVRRDEEIENFVAKDFFEVKAHIVTPADERFTAIWQPSEACEPYQDEEGRLLHRPLAEHVVNRISGQPAIVTSYNDKRESESAPLPFSLSALQIEAAKRFGLSAQNVLDICQKLYETHKLITYPRSDCRYLPEEHFAGRHAVMNAISVHAPDLLPQPVVDPDIRNRCWDDKKVDAHHAIIPTARSSAINLTENEAKVYNLIARQYLMQFCPDAVFRKCVIELDIAKGKFVAKARFLAEAGWRTLLGSKERDEENDGTPLPVVAKGDELLCEKGEVVERQTQPPRHFTDATLLSAMTGIARFVQDKDLKKILRATDGLGTEATRAGIIELLFKRGFLTKKGRYIHSTDAGKALFHSLPEMATRPDMTAHWESVLTQISEKQCRYQDFMQPLVGTLYQLIDQAKRTPVRQFRGIVAPGSGGSADKKKAAPRKRSAKKSPPADEVGSGAIA
notes: TopB (DNA topoisomerase III), E. coli; open reading frame (start to stop codons) of topB; also called pGAD-TopB; pGBD-TopB; source: yeast two-hybrid fusion (yeast CFy7; pEAW1251 pGAD-TopB, pEAW1252 pGBD-TopB)
B2: RecR (Gal4 fusion for yeast two-hybrid) (natural protein, E. coli, UniProt P0A7H6 1-201, looked up)
chain: MQTSPLLTQLMEALRCLPGVGPKSAQRMAFTLLQRDRSGGMRLAQALTRAMSEIGHCADCRTFTEQEVCNICSNPRRQENGQICVVESPADIYAIEQTGQFSGRYFVLMGHLSPLDGIGPDDIGLDRLEQRLAEEKITEVILATNPTVEGEATANYIAELCAQYDVEASRIAHGVPVGGELEMVDGTTLSHSLAGRHKIRF
notes: RecR, E. coli; open reading frame (start to stop codons) of recR; Stood as AD fusion and as BD fusion in turn; also called pGAD-RecR; pGBD-RecR; source: yeast two-hybrid fusion (yeast CFy7; pEAW1247 pGAD-RecR, pEAW1248 pGBD-RecR)
B3: RecQ (Gal4 fusion for yeast two-hybrid) (natural protein)
chain: not shown
notes: RecQ helicase, E. coli; open reading frame (start to stop codons) of recQ; also called pGAD-RecQ; pGBD-RecQ; source: yeast two-hybrid fusion (yeast CFy7; pEAW1100 pGAD-RecQ, pEAW1105 pGBD-RecQ)
B4: RecO (Gal4 fusion for yeast two-hybrid) (natural protein, E. coli, UniProt P0A7H3 1-242, looked up)
chain: MEGWQRAFVLHSRPWSETSLMLDVFTEESGRVRLVAKGARSKRSTLKGALQPFTPLLLRFGGRGEVKTLRSAEAVSLALPLSGITLYSGLYINELLSRVLEYETRFSELFFDYLHCIQSLAGVTGTPEPALRRFELALLGHLGYGVNFTHCAGSGEPVDDTMTYRYREEKGFIASVVIDNKTFTGRQLKALNAREFPDADTLRAAKRFTRMALKPYLGGKPLKSRELFRQFMPKRTVKTHYE
notes: RecO, E. coli; open reading frame (start to stop codons) of recO; also called pGAD-RecO; pGBD-RecO; source: yeast two-hybrid fusion (yeast CFy7; pEAW1258 pGAD-RecO, pEAW1259 pGBD-RecO)
B5: RecF (Gal4 fusion for yeast two-hybrid) (natural protein, E. coli, UniProt P0A7H0 1-357, looked up)
chain: MSLTRLLIRDFRNIETADLALSPGFNFLVGANGSGKTSVLEAIYTLGHGRAFRSLQIGRVIRHEQEAFVLHGRLQGEERETAIGLTKDKQGDSKVRIDGTDGHKVAELAHLMPMQLITPEGFTLLNGGPKYRRAFLDWGCFHNEPGFFTAWSNLKRLLKQRNAALRQVTRYEQLRPWDKELIPLAEQISTWRAEYSAGIAADMADTCKQFLPEFSLTFSFQRGWEKETEYAEVLERNFERDRQLTYTAHGPHKADLRIRADGAPVEDTLSRGQLKLLMCALRLAQGEFLTRESGRRCLYLIDDFASELDDERRGLLASRLKATQSQVFVSAISAEHVIDMSDENSKMFTVEKGKITD
notes: RecF, E. coli; open reading frame (start to stop codons) of recF cloned in frame into pGAD-C3 and pGBD-C3; Stood as AD fusion and as BD fusion in turn; one molecule for both; source: yeast two-hybrid fusion (yeast CFy7; pEAW1241 pGAD-RecF, pEAW1242 pGBD-RecF)
B6: RadD (Gal4 fusion for yeast two-hybrid) (natural protein, E. coli, UniProt P33919 1-586, looked up)
chain: MIFTLRPYQQEAVDATLNHFRRHKTPAVIVLPTGAGKSLVIAELARLARGRVLVLAHVKELVAQNHAKYQALGLEADIFAAGLKRKESHGKVVFGSVQSVARNLDAFQGEFSLLIVDECHRIGDDEESQYQQILTHLTKVNPHLRLLGLTATPFRLGKGWIYQFHYHGMVRGDEKALFRDCIYELPLRYMIKHGYLTPPERLDMPVVQYDFSRLQAQSNGLFSEADLNRELKKQQRITPHIISQIMEFAATRKGVMIFAATVEHAKEIVGLLPAEDAALITGDTPGAERDVLIENFKAQRFRYLVNVAVLTTGFDAPHVDLIAILRPTESVSLYQQIVGRGLRLAPGKTDCLILDYAGNPHDLYAPEVGTPKGKSDNVPVQVFCPACGFANTFWGKTTADGTLIEHFGRRCQGWFEDDDGHREQCDFRFRFKNCPQCNAENDIAARRCRECDTVLVDPDDMLKAALRLKDALVLRCSGMSLQHGHDEKGEWLKITYYDEDGADVSERFRLQTPAQRTAFEQLFIRPHTRTPGIPLRWITAADILAQQALLRHPDFVVARMKGQYWQVREKVFDYEGRFRLAHELRG
notes: RadD (YejH), E. coli; also called YejH; pGAD-YejH; source: yeast two-hybrid fusion (yeast CFy7)

Test in all cases: two-hybrid; yeast CFy7; RecF fused to Gal4 AD (pGAD-C3) or BD (pGBD-C3) and the partner to the other domain; β-galactosidase activity of freeze/thaw-broken cells in Z buffer; 4 or 5 biological replicates; negative controls (empty C3) 0.21 (AD_RecF) and 0.27 units (BD_RecF)
The target of data set [1] is B5. The conditions noted are these: partners not purified.
Data set [2] addresses B2. The conditions noted are these: partners not purified.
Data set [3] has as its target T1, DnaN β-clamp (Gal4 fusion for yeast two-hybrid) (E. coli, UniProt P0A988 1-366).
T1 construct: DnaN (β-clamp of DNA polymerase III), E. coli; open reading frame (start to stop codons) of dnaN; also called pGBD-DnaN; source: yeast two-hybrid fusion (yeast CFy7; pEAW1101 pGAD-DnaN, pEAW1104 pGBD-DnaN)
Conditions: partners not purified.

Data set [4] concerns the molecule itself.

T1 sequence (P0A988 whole entry, the tested form may be a part): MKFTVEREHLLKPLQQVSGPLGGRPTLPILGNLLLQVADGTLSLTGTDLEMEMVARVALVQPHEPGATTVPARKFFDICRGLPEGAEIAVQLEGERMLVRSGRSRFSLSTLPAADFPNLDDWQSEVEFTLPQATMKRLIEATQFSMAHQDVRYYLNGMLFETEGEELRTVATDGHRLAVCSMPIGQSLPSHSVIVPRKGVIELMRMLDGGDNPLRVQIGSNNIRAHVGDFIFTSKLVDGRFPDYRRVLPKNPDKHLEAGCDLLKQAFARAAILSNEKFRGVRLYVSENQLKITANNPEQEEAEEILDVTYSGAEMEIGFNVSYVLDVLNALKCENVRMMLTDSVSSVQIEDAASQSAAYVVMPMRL

Turning to B1, the β-galactosidase activity in data set [1] is roughly 0.5 units.
Still for that read-out and setting: under B2 stands 1.63 units.
Same read-out and setting: under B3 stands roughly 0.5 units; under B4, roughly 0.5 units.
For the molecule B5, the β-galactosidase activity in data set [2] stood at 1.14 units; in data set [3], 1.05 units; in data set [4], 0.655 units.
Consider B6, for which the β-galactosidase activity in data set [1] is roughly 0.5 units.

(Values after publication PMC10287930, “RecF protein targeting to post-replication (daughter strand) gaps II: RecF interaction with replisomes” (Nucleic Acids Research, 2023).)
